Results taken from PMC4729467, “Kinetic Characterization of 100 Glycoside Hydrolase Mutants Enables the Discovery of Structural Features Correlated with Kinetic Constants” (PLoS ONE, 2016).

Substrate: O=[N+]([O-])c1ccc(O[C@@H]2O[C@H](CO)[C@@H](O)[C@H](O)[C@H]2O)cc1
Experiment: purified protein
[1] = enzyme storage buffer (HEPES elution buffer), ten biological replicates

B1: β-glucosidase B (BglB) (Paenibacillus polymyxa) (protein)
chain: MSENTFIFPATFMWGTSTSSYQIEGGTDEGGRTPSIWDTFCQIPGKVIGGDCGDVACDHFHHFKEDVQLMKQLGFLHYRFSVAWPRIMPAAGIINEEGLLFYEHLLDEIELAGLIPMLTLYHWDLPQWIEDEGGWTQRETIQHFKTYASVIMDRFGERINWWNTINEPYCASILGYGTGEHAPGHENWREAFTAAHHILMCHGIASNLHKEKGLTGKIGITLNMEHVDAASERPEDVAAAIRRDGFINRWFAEPLFNGKYPEDMVEWYGTYLNGLDFVQPGDMELIQQPGDFLGINYYTRSIIRSTNDASLLQVEQVHMEEPVTDMGWEIHPESFYKLLTRIEKDFSKGLPILITENGAAMRDELVNGQIEDTGRHGYIEEHLKACHRFIEEGGQLKGYFVWSFLDNFEWAWGYSKRFGIVHINYETQERTPKQSALWFKQMMAKNGF
Km [1]: 5.0 ± 0.2 mM | kcat [1]: 14.7 ± 0.167 s⁻¹

B2: β-glucosidase B (BglB) (Paenibacillus polymyxa; E225A) (protein)
chain: MSENTFIFPATFMWGTSTSSYQIEGGTDEGGRTPSIWDTFCQIPGKVIGGDCGDVACDHFHHFKEDVQLMKQLGFLHYRFSVAWPRIMPAAGIINEEGLLFYEHLLDEIELAGLIPMLTLYHWDLPQWIEDEGGWTQRETIQHFKTYASVIMDRFGERINWWNTINEPYCASILGYGTGEHAPGHENWREAFTAAHHILMCHGIASNLHKEKGLTGKIGITLNMAHVDAASERPEDVAAAIRRDGFINRWFAEPLFNGKYPEDMVEWYGTYLNGLDFVQPGDMELIQQPGDFLGINYYTRSIIRSTNDASLLQVEQVHMEEPVTDMGWEIHPESFYKLLTRIEKDFSKGLPILITENGAAMRDELVNGQIEDTGRHGYIEEHLKACHRFIEEGGQLKGYFVWSFLDNFEWAWGYSKRFGIVHINYETQERTPKQSALWFKQMMAKNGF
Km (enzyme storage buffer): 0.63 ± 0.15 mM | kcat (enzyme storage buffer): 1.5 s⁻¹ | kcat/Km (enzyme storage buffer): 2390 ± 602 M⁻¹ s⁻¹

B3: β-glucosidase B (BglB) (Paenibacillus polymyxa; R243A) (protein)
chain: MSENTFIFPATFMWGTSTSSYQIEGGTDEGGRTPSIWDTFCQIPGKVIGGDCGDVACDHFHHFKEDVQLMKQLGFLHYRFSVAWPRIMPAAGIINEEGLLFYEHLLDEIELAGLIPMLTLYHWDLPQWIEDEGGWTQRETIQHFKTYASVIMDRFGERINWWNTINEPYCASILGYGTGEHAPGHENWREAFTAAHHILMCHGIASNLHKEKGLTGKIGITLNMEHVDAASERPEDVAAAIRADGFINRWFAEPLFNGKYPEDMVEWYGTYLNGLDFVQPGDMELIQQPGDFLGINYYTRSIIRSTNDASLLQVEQVHMEEPVTDMGWEIHPESFYKLLTRIEKDFSKGLPILITENGAAMRDELVNGQIEDTGRHGYIEEHLKACHRFIEEGGQLKGYFVWSFLDNFEWAWGYSKRFGIVHINYETQERTPKQSALWFKQMMAKNGF
Km (enzyme storage buffer): 19.46 ± 1.17 mM | kcat (enzyme storage buffer): 184 s⁻¹ | kcat/Km (enzyme storage buffer): 9430 ± 606 M⁻¹ s⁻¹
